Like-named read-outs stand apart in the source and are kept apart here.
Key:
Assay in all cases: BLI
[1] = target: PAD A114K (UniProt Q96QC0)
[2] = target: PAD M141F (UniProt Q96QC0)
[3] = target: PAD M141F (UniProt Q96QC0); remark: listed apart in the source
[4] = target: PAD K118A (UniProt Q96QC0)
[5] = target: PAD M141W (UniProt Q96QC0)
[6] = target: PAD K122A (UniProt Q96QC0)
[7] = target: PAD A114K (UniProt Q96QC0); remark: listed apart in the source
[8] = target: PAD K109A (UniProt Q96QC0)
PAD K109A, sequence (Q96QC0 1-148 K109A): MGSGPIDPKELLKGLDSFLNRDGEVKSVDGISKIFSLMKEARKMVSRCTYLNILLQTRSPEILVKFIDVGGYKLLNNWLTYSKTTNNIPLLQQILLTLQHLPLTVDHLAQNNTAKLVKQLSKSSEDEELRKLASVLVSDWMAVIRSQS

[9] = target: PAD M141W (UniProt Q96QC0); remark: listed apart in the source
[10] = target: PAD K122A (UniProt Q96QC0); remark: listed apart in the source

PAD M141F, sequence (Q96QC0 1-148 M141F): as the sequence (Q96QC0 1-148 K109A) above, with A109K, M141F counted along it
PAD A114K, sequence (Q96QC0 1-148 A114K): as the sequence (Q96QC0 1-148 K109A) above, with A109K, A114K counted along it
PAD K122A, sequence (Q96QC0 1-148 K122A): as the sequence (Q96QC0 1-148 K109A) above, with A109K, K122A counted along it
PAD M141W, sequence (Q96QC0 1-148 M141W): as the sequence (Q96QC0 1-148 K109A) above, with A109K, M141W counted along it
PAD K118A, sequence (Q96QC0 1-148 K118A): as the sequence (Q96QC0 1-148 K109A) above, with A109K, K118A counted along it

Kd [1]: 52 µM | Kd [2]: 19 µM | Kd [3]: 19 µM | Kd [4]: 12 µM | Kd [5]: 24 µM | Kd [6]: 35 µM | Kd [7]: 52 µM | Kd [8]: 27 µM | Kd [9]: 24 µM | Kd [10]: 35 µM
Substance: biotinyl-MB0 peptide (MYC 16-33) (from UniProt P01106-2 16-33)
